Patent publication US20110059889A1 (SYNTONIX PHARMACEUTICALS, published 2011)
Numbered stars: 1 amine (or outer) side, 2 acyl side, 3 side chain; on linkers, the order of the positions; unused ones are H or OH. Bridge positions count the residues as written; N and C are the ends. Square brackets hold non-standard residues; d marks the D form. Ends that are not written are not given here. X2 = (3R)‑3‑amino‑1‑carboxymethyl‑valerolactam, O=C1[C@H](N[*:1])CCCN1CC(=O)[*:2]; X1 = 3‑amino‑2‑oxo‑1‑piperidine‑acetic acid, O=C1C(N[*:1])CCCN1CC(=O)[*:2]; NMeL = CN[C@@H](CC(C)C)C(=O)O; Pen = CC(C)(S)[C@H](N)C(=O)O; NMeA = CN[C@@H](C)C(=O)O; Sar = CNCC(=O)O

B1: Peptide No. 288 (peptide)
peptide: RF[Pen]TGHFG[Sar][NMeL]YPCGG
modifications: disulfide 3-13; also: dimer: C-termini joined through a branching Lys
notes: C-terminally linked dimer; drawing CHEM-US-00132
B2: Peptide No. 280 (peptide)
peptide: RFCTGHFGGLYPC
modifications: Pen 3; Sar 9; NMeLeu 10; disulfide 3-13 within each chain; C-termini joined through the two amino groups of a branching Lys
notes: C-terminally linked dimer; drawing CHEM-US-00124
B3: Peptide No. 201 (peptide)
peptide: QRF[Pen]TGHFGGLYPCNGP-NH2
modifications: disulfide 4-14; also: N-terminally linked homodimer via ethylene glycol-bis(succinic acid) linker
notes: N-terminally linked dimer
B4: Peptide No. 287 (peptide)
peptide: RF[Pen]TGHFG[Sar][NMeL]YPCG
modifications: disulfide 3-13; also: dimer: C-termini joined through a branching Lys
notes: C-terminally linked dimer; drawing CHEM-US-00131
B5: Peptide No. 279 (peptide)
peptide: RF[Pen]TGHFG[Sar][NMeL]YPC-NH2
modifications: disulfide 3-13; also: dimer: N-termini joined by Bis-dPEG6 diacid linker
notes: N-terminally linked dimer; drawing CHEM-US-00123
B6: Peptide No. 101 (peptide)
peptide: QRF[Pen]TGHFGGIYPCNGP-NH2
modifications: disulfide 4-14; N-terminus assumed
SMILES: CC[C@H](C)[C@@H]1NC(=O)CNC(=O)CNC(=O)[C@H](Cc2ccccc2)NC(=O)[C@H](Cc2c[nH]cn2)NC(=O)CNC(=O)[C@H]([C@@H](C)O)NC(=O)[C@@H](NC(=O)[C@H](Cc2ccccc2)NC(=O)[C@H](CCCNC(=N)N)NC(=O)[C@@H](N)CCC(N)=O)C(C)(C)SSC[C@@H](C(=O)N[C@@H](CC(N)=O)C(=O)NCC(=O)N2CCC[C@H]2C(N)=O)NC(=O)[C@@H]2CCCN2C(=O)[C@H](Cc2ccc(O)cc2)NC1=O
B7: Peptide No. 238 (peptide)
peptide: QRF[Pen]TGHFG[Sar]WYPCNGP-NH2
modifications: disulfide 4-14; N-terminus assumed
SMILES: C[C@@H](O)[C@@H]1NC(=O)[C@@H](NC(=O)[C@H](Cc2ccccc2)NC(=O)[C@H](CCCNC(=N)N)NC(=O)[C@@H](N)CCC(N)=O)C(C)(C)SSC[C@@H](C(=O)N[C@@H](CC(N)=O)C(=O)NCC(=O)N2CCC[C@H]2C(N)=O)NC(=O)[C@@H]2CCCN2C(=O)[C@H](Cc2ccc(O)cc2)NC(=O)[C@H](Cc2c[nH]c3ccccc23)NC(=O)CN(C)C(=O)CNC(=O)[C@H](Cc2ccccc2)NC(=O)[C@H](Cc2c[nH]cn2)NC(=O)CNC1=O
B8: Peptide No. 115 (peptide)
peptide: QRF[Pen]TGHFGGFYPCNGP-NH2
modifications: disulfide 4-14; N-terminus assumed
SMILES: C[C@@H](O)[C@@H]1NC(=O)[C@@H](NC(=O)[C@H](Cc2ccccc2)NC(=O)[C@H](CCCNC(=N)N)NC(=O)[C@@H](N)CCC(N)=O)C(C)(C)SSC[C@@H](C(=O)N[C@@H](CC(N)=O)C(=O)NCC(=O)N2CCC[C@H]2C(N)=O)NC(=O)[C@@H]2CCCN2C(=O)[C@H](Cc2ccc(O)cc2)NC(=O)[C@H](Cc2ccccc2)NC(=O)CNC(=O)CNC(=O)[C@H](Cc2ccccc2)NC(=O)[C@H](Cc2c[nH]cn2)NC(=O)CNC1=O
B9: Peptide No. 237 (peptide)
peptide: RF[Pen]TGHFGGWYPC-NH2
modifications: disulfide 3-13; N-terminus assumed
SMILES: C[C@@H](O)[C@@H]1NC(=O)[C@@H](NC(=O)[C@H](Cc2ccccc2)NC(=O)[C@@H](N)CCCNC(=N)N)C(C)(C)SSC[C@@H](C(N)=O)NC(=O)[C@@H]2CCCN2C(=O)[C@H](Cc2ccc(O)cc2)NC(=O)[C@H](Cc2c[nH]c3ccccc23)NC(=O)CNC(=O)CNC(=O)[C@H](Cc2ccccc2)NC(=O)[C@H](Cc2c[nH]cn2)NC(=O)CNC1=O
B10: Peptide No. 97 (peptide)
peptide: QRY[Pen]TGHFGGLYPCNGP-NH2
modifications: disulfide 4-14; N-terminus assumed
SMILES: CC(C)C[C@@H]1NC(=O)CNC(=O)CNC(=O)[C@H](Cc2ccccc2)NC(=O)[C@H](Cc2c[nH]cn2)NC(=O)CNC(=O)[C@H]([C@@H](C)O)NC(=O)[C@@H](NC(=O)[C@H](Cc2ccc(O)cc2)NC(=O)[C@H](CCCNC(=N)N)NC(=O)[C@@H](N)CCC(N)=O)C(C)(C)SSC[C@@H](C(=O)N[C@@H](CC(N)=O)C(=O)NCC(=O)N2CCC[C@H]2C(N)=O)NC(=O)[C@@H]2CCCN2C(=O)[C@H](Cc2ccc(O)cc2)NC1=O
B11: Peptide No. 98 (peptide)
peptide: QRW[Pen]TGHFGGLYPCNGP-NH2
modifications: disulfide 4-14; N-terminus assumed
SMILES: CC(C)C[C@@H]1NC(=O)CNC(=O)CNC(=O)[C@H](Cc2ccccc2)NC(=O)[C@H](Cc2c[nH]cn2)NC(=O)CNC(=O)[C@H]([C@@H](C)O)NC(=O)[C@@H](NC(=O)[C@H](Cc2c[nH]c3ccccc23)NC(=O)[C@H](CCCNC(=N)N)NC(=O)[C@@H](N)CCC(N)=O)C(C)(C)SSC[C@@H](C(=O)N[C@@H](CC(N)=O)C(=O)NCC(=O)N2CCC[C@H]2C(N)=O)NC(=O)[C@@H]2CCCN2C(=O)[C@H](Cc2ccc(O)cc2)NC1=O
B12: Peptide No. 96 (peptide)
peptide: QR[dF][Pen]TGHFGGLYPCNGP-NH2
modifications: disulfide 4-14; N-terminus assumed
SMILES: CC(C)C[C@@H]1NC(=O)CNC(=O)CNC(=O)[C@H](Cc2ccccc2)NC(=O)[C@H](Cc2c[nH]cn2)NC(=O)CNC(=O)[C@H]([C@@H](C)O)NC(=O)[C@@H](NC(=O)[C@@H](Cc2ccccc2)NC(=O)[C@H](CCCNC(=N)N)NC(=O)[C@@H](N)CCC(N)=O)C(C)(C)SSC[C@@H](C(=O)N[C@@H](CC(N)=O)C(=O)NCC(=O)N2CCC[C@H]2C(N)=O)NC(=O)[C@@H]2CCCN2C(=O)[C@H](Cc2ccc(O)cc2)NC1=O
B13: Peptide No. 179 (peptide)
peptide: RF[Pen]TGHF[X1]LYPC-NH2
modifications: disulfide 3-12
B14: Peptide No. 228 (peptide)
peptide: RF[Pen][NMeA]GHF[X2][NMeL]YPC-NH2
modifications: disulfide 3-12; N-terminus assumed
SMILES: CC(C)C[C@H]1C(=O)N[C@@H](Cc2ccc(O)cc2)C(=O)N2CCC[C@H]2C(=O)N[C@H](C(N)=O)CSSC(C)(C)[C@H](NC(=O)[C@H](Cc2ccccc2)NC(=O)[C@@H](N)CCCNC(=N)N)C(=O)N(C)[C@@H](C)C(=O)NCC(=O)N[C@@H](Cc2c[nH]cn2)C(=O)N[C@@H](Cc2ccccc2)C(=O)N[C@@H]2CCCN(CC(=O)N1C)C2=O
B15: Peptide No. 205 (peptide)
peptide: RFCTGHFXLYPC
modifications: not fully specified; Pen 3; X 8 = 3(S)-2-amino-2-oxo-1-azepine acetic acid (so in the source) in place of Gly-Gly; disulfide 3-12; C-terminal amide
B16: Peptide No. 214 (peptide)
peptide: RFCTGHFXLYPC
modifications: not fully specified; Pen 3; X 8 = 3(S)-3-amino-2-oxo-1-pyrrolidine acetic acid in place of Gly-Gly; disulfide 3-12; C-terminal amide
B17: Peptide No. 178 (peptide)
peptide: RF[Pen]TGHF[X1]LYPC-NH2
modifications: disulfide 3-12
B18: Peptide No. 66 (peptide)
peptide: QRFCTGHFGGLXPCNGP
modifications: Pen 4; 2-pyridylAla 12 (printed 2-pvridylAla); disulfide 4-14; C-terminal amide
B19: Peptide No. 111 (peptide)
peptide: QRF[Pen]TGHF[Sar]GLYPCNGP-NH2
modifications: disulfide 4-14; N-terminus assumed
SMILES: CC(C)C[C@@H]1NC(=O)CNC(=O)CN(C)C(=O)[C@H](Cc2ccccc2)NC(=O)[C@H](Cc2c[nH]cn2)NC(=O)CNC(=O)[C@H]([C@@H](C)O)NC(=O)[C@@H](NC(=O)[C@H](Cc2ccccc2)NC(=O)[C@H](CCCNC(=N)N)NC(=O)[C@@H](N)CCC(N)=O)C(C)(C)SSC[C@@H](C(=O)N[C@@H](CC(N)=O)C(=O)NCC(=O)N2CCC[C@H]2C(N)=O)NC(=O)[C@@H]2CCCN2C(=O)[C@H](Cc2ccc(O)cc2)NC1=O
B20: Peptide No. 235 (peptide)
peptide: RF[Pen]TGHFG[Sar][NMeL]YPC-NH2
modifications: disulfide 3-13; N-terminus assumed
SMILES: CC(C)C[C@H]1C(=O)N[C@@H](Cc2ccc(O)cc2)C(=O)N2CCC[C@H]2C(=O)N[C@H](C(N)=O)CSSC(C)(C)[C@H](NC(=O)[C@H](Cc2ccccc2)NC(=O)[C@@H](N)CCCNC(=N)N)C(=O)N[C@@H]([C@@H](C)O)C(=O)NCC(=O)N[C@@H](Cc2c[nH]cn2)C(=O)N[C@@H](Cc2ccccc2)C(=O)NCC(=O)N(C)CC(=O)N1C

Target: T1, soluble human FcRn (shFcRn) (human, UniProt P55899 24-297; P61769 21-119)
T1 construct: Biotinylated for the ELISA, amine-coupled to a CM5 chip for SPR; also called biotinylated shFcRn
Assay: IgG competition ELISA
Protocol: (§1) The wells were coated with 100 μl/well of 1 μg/ml biotinylated-shFcRn in Buffer A. The plate was sealed and incubated at 37° C. for 2 hours. Afterwards, the plate was washed with 200 μl/well of Buffer B (Buffer B: 100 mM MES pH 6, 150 mM NaCl, 0.5% BSA IgG-free (Jackson ImmunoResearch, West Grove, Pa.), 0.05% Tween-20). […] To allow for mixing, the plate was rocked for 2 minutes, sealed and incubated at 37° C. for 2 hours. […] The plate was covered, incubated for 30 minutes at room temperature and washed 4 times with 200 μl/well of ice-cold buffer B. SureBlue TMB substrate solution (100 μl/well, KPL, Gaithersburg, Md.) was added and the plate was allowed to incubate at room temperature until color developed, which took 5 to 10 minutes. Once color developed, 100 μl/well of TMB stop solution (KPL, Gaithersburg, Md.) was added and the absorbance was measured at 450 nm. The data was plotted as absorbance vs. peptide concentration to derive the inhibitory concentration 50% (IC₅₀) values.

IC50 [nM] | Binder
16 | B1
25 | B2
26 | B3
20 | B4
7 | B5

Target: T1, soluble human FcRn (shFcRn)
Assay: IgG competition ELISA
Remark: another data set of the same source
Protocol: as §1

IC50 [nM] | Binder
3400 | B6
1000 | B7
4100 | B8
2800 | B9

Target: T1, soluble human FcRn (shFcRn)
Assay: SPR pH 6
Protocol: (§2) The following steps were performed to cross-link soluble human or cynomolgus FcRn to the dextran surface of a CM5 sensor chip (Biacore AB, Uppsala, Sweden) by an amine coupling reaction involving 1-ethyl-(3-dimethylaminopropyl)-carbodiimide hydrochloride (EDC) (Biacore AB, Uppsala, Sweden) and N-hydroxysuccinimide (NHS) (Biacore AB, Uppsala, Sweden) as recommended by Biacore (BIAapplications Handbook, version AB, section 4.2, Biacore AB, Uppsala, Sweden). […] Residual sites on the FcRn flow cell were blocked with 1 M ethanolamine hydrochloride pH 8.5 (Biacore AB, Uppsala, Sweden). A control flow cell was blocked with ethanolamine for reference subtraction. For analysis of the monomeric peptides, FcRn was coated to a final density of 4000-5000 response units (RU). For analysis of the peptide dimers, FcRn was coated to a density of 2000-2500 RU. All SPR measurements were performed using a BIACORE 3000 Instrument (Biacore AB Uppsala, Sweden). For measurements done at either pH 6 or pH 7.4, experiments were performed in 50 mM phosphate, 100 mM sodium chloride, 0.01% surfactant P20 (Biacore AB, Uppsala, Sweden).
(§3) Ten, 2-fold dilutions of the peptide were injected over the FcRn-CM5 chip at a rate of 20 μl/min for 2 min. The peptide was dissociated from the chip for 2.5 minutes with buffer. Any remaining peptide was removed from the chip with a 30 second injection of HBS-P buffer (Biacore AB, Uppsala, Sweden) at a rate of 30 μl/min. Sensorgrams were generated and analyzed using BiaEval software version 3.1 (Biacore AB, Uppsala, Sweden). The equilibrium RU observed for each injection was plotted against concentration. The equilibrium KD values were derived by analysis of the plots using the steady state affinity model included in the BiaEval software.

Kd [nM] | Binder
340 | B6
400 | B8
140 | B9

Target: T1, soluble human FcRn (shFcRn)
Assay: IgG competition ELISA
Remark: another data set of the same source
Protocol: as §1

IC50 [nM] | Binder
2400 | B10
1500 | B11
11400 | B12

Target: T1, soluble human FcRn (shFcRn)
Assay: SPR pH 6
Remark: another data set of the same source
Protocol: as §2, §3

Kd [nM] | Binder
670 | B13
145 | B14
103 | B15
280 | B16
160 | B17

Target: T1, soluble human FcRn (shFcRn)
Assay: IgG competition ELISA
Remark: another data set of the same source
Protocol: as §1

IC50 [nM] | Binder
> 125000 | B18

Target: T1, soluble human FcRn (shFcRn)
Assay: SPR pH 6
Remark: another data set of the same source
Protocol: as §2, §3

Kd [nM] | Binder
2000 | B19
31 | B20

Target: T1, soluble human FcRn (shFcRn)
Assay: IgG competition ELISA
Remark: another data set of the same source
Protocol: as §1

IC50 [nM] | Binder
7200 | B13
1100 | B14
640 | B15
2300 | B16
660 | B17

Target: T1, soluble human FcRn (shFcRn)
Assay: SPR pH 6
Remark: another data set of the same source
Protocol: as §2, §3

Kd [nM] | Binder
31 | B20
